Data on 1 molecule can be found in patent US12686712B2, “Antibody, related use, pharmaceutical composition including method for diagnosing fungal infections, fungal infection diagnosis kit and method for treating fungal infections” (priority 2020, dated 2026).

For test [1], the system named is C. neoformans (H99). Nature of the test: Indirect ELISA against intact cells using poly-L-Lysine (PL). It counts as binding, Cryptococcus neoformans. The following applies: 10^4 and 10^5 cells/ml. The procedure: For this test, C. neoformans (H99), Candida albicans, Giardia lamblia, human lung line cell A549 (ATCC), Escherichia coli and Staphylococcus aureus. Cells were washed in PBS three times and suspended at 10^7 cell/ml density in poly-L-Lysine (5 μg/ml in PBS) for adherence at night at 4° C. The next day, plates were blocked with PBS/BSA 5% and incubated for 1 hour at 37° C., then they are incubated for 1 hour at 37° C. with anti-chitooligomer AcM at 50 μg/ml concentration and diluted at 5 μg/ml. Then, washing with PBS/Tween 0.05% was performed for 3 times and anti-IgM murine peroxidase was added diluted 1:5000 and incubated for 2 hours at 37° C. Plates were washed again and TMB was added and incubated for 30 minutes at 37° C.
Reaction was stopped with HCl 1 N and reading with spectrophotometer at 450 nm. After this trial, seriated dilutions were performed at density of cells 10^7 until 10 cells/ml to fungi and 10^7 until 10^4 cells/ml to other cellular types and tested of AcM anti-chitooligomer at 25 μg/ml concentration, followed by the same procedures abovementioned. […]
In this trial, 10^7 cell/ml of C. albicans were used to perform an absorbance curve, in which it was observed that there was a 25 μg/ml concentration reliable signal of both AcM, as above such value the curve starts to enter in plateau, as provided in FIG. 9. […]

For test [2], the system named is C. albicans. Nature of the test: Dot Blot against intact cells using PL. The class given is binding, Candida albicans. The following applies: AcM 25 μg/ml; cells in 5 μg/ml PL diluted in base 10 from 10^7 cell/ml; 3 independent experiments. The procedure: (§1) C. neoformans (H99) and Candida albicans in 10^7 cell/ml density until 10 cells/ml were suspended in poly-L-Lysine solution (5 μg/ml in PBS) and 10 μl were loaded in nitrocellulose membranes. Then, the same steps for ELISA were followed, however, 25 μg/ml concentration of AcM anti-chitooligomers. Membrane was cut and deposited in 96-well plates, to which 50 μl TMB was added and incubated for 30 minutes at 37° C. Volume was removed and transferred to a new plate, to which stop reaction was added with HCl 1 N and read with spectrophotometer at 450 nm.
(§2) The principle used in this trial was the same of ELISA and was based on the load presented by fungi. As nitrocellulose membrane has negative load, PL was used to check positive load to fungus, and consequently have bond to membrane.
(§3) As provided in FIG. 11, it was initially diluted in 5 μg/ml of PL at 10^7 cell/ml concentration and diluted in base 10. In this trial, it was evidenced that AcM HC6/DD11 was capable to bond to C. albicans up to 10^4 cell/ml order, which counters C. neoformans, that was identified to 10^6 cell/ml order. 3 independent experiments were performed to each trial. Example 16.7—Immunofluorescence

Test [3] concerns C. neoformans (H99). Description: Dot Blot against intact cells using PL. The class given is binding, Cryptococcus neoformans. The following applies: AcM 25 μg/ml; cells in 5 μg/ml PL diluted in base 10 from 10^7 cell/ml; 3 independent experiments. The procedure: as §1, §2, §3
Test [4] relates to C. neoformans. Description: Melanization trial (L-DOPA). It counts as cell-based, Cryptococcus neoformans. The following applies: concentrations lower than 6.2 μg/ml; p>0.05. The protocol: C. neoformans cultivation was performed as paragraph and cellular suspension (1×10^6 cells/ml) was cultivated for 72 hours in minimum media supplemented with 1 mM of L-DOPA in 96-well plate of U-shape bottom. Antibodies HC6/DD11 and AF1/CC5 were added to minimum media within 25 to 0.05 μg/ml concentration range. The plate was centrifuged and pigment development quantification was defined densitometrically upon image scanning by iBright FL1000 Invitrogen equipment.
AcM HC6/DD11 e AF1/CC5 established concentrations were 0.2 to 25 μg/ml. L-DOPA was used with substrate to melanization.
Pigmentation in C. neoformans was assessed through brown to black sedimentation observation in 96-well plate bottom. To document pigmentation or inhibition, plates were photographed over white surfaces (clear bottom), to enable differentiation between pigmented and non-pigmented populations. It shall be noted that every AcM dose presents fungal growth, however with negative pigmentation or partial inhibition.

The test system of test [5] is acapsular mutant of C. neoformans Cap67. Nature of the test: Biofilm development, XTT reduction trial. The class given is cell-based, Cryptococcus neoformans. The following applies: AcM 25 μg/ml, 48 hours at 37° C., vs fungus without treatment, p<0.05. The protocol:
C. neoformans (H99 and Cap67) and Candida albicans were cultivated in Sabouraud media for 24 hours at 30° C. Cellular suspensions were centrifuged for 5 minutes at 3000 g, washed 3 times in PBC and suspended in minimum media (20 mg/ml thiamin, 30 mm glucose, 26 mM glycine, 20 mM MgSO4, and 58.8 mM KH2PO4). Then, they were added to 96-well plates (100 μl/well—1×10^6 células/ml) and cultivated for 48 hours at 37° C. at presence of AcM (HC6/DD11 and AF1/CC5) and AcM anti-GXM 18B7 (only to H99) at 25 μg/ml concentration, keeping under agitation for 30 minutes, for AcM total homogenization with fungi. As control, drug AmB was used at 1 μg/ml concentration.
Two analysis systems were performed: in the first, cells were washed, so that non-adhering cells were removed and only cells bonded to biofilm under development remained; in the second system, cells were not washed and all cells adhered or not to substrate were quantified.
Viable cell metabolic activity in both trials was assessed by the method based on decrease of XTT (2-methoxy-4-nitro-5-sulfophenyl)-5-[(phenylamino) carbonyl]-2H-tetrazolium hydroxide) in spectrophotometer at 492 nm of wavelength.
AcMs were tested (25 μg/ml) against three fungus species (C. albicans, C. neoformans—H99—and acapsular mutant of C. neoformans—Cap67), with control by AcM anti-GXM 18B7 (25 μg/ml) only to H99. In the first assay (FIGS. 14A and B), cellular suspensions were washed to remove non-adhering cells to substrate. […] In second assay (FIGS. 14C and D), cellular suspensions were not washed, and again AcM inhibited biofilm development (p<0.05) compared to cell not treated with antibodies. In both assays, cell growth was observed.
For orientation: Formazan colour is commonly taken as a measure of viable cells.

B1: HC6/DD11: murine IgM monoclonal antibody against chitooligomers (chitotriose); VH SEQ ID NO: 15, VL SEQ ID NO: 16 (antibody, listed as Mus musculus, V domains shown)
VH: STGQVKLEESGGGLVQPGGSRKLSCAASGFTFSDYGMAWVRQAPGKGPEWVAFISNLAYSIYYADTVTGRFTISRENAKNTLYLEMSSLRSEDTAMYYCARDYYGSSYWYFDVWGAGTTVTAPC
VL: ATNSCISRGEVTITCSASSSVSYMHWFQQKPGTSPKLWIYSTSNLASGVPARFSGSGSGTSYSLTISRMEAEDAATYYCQQRSSYPLTFGAGTKLELKRADAAPTVSLET
As for B1, the “ELISA signal in cell saturation curve” value in test [1] was “slightly more sensitive”. Besides, in test [2], the “cell density down to which AcM was capable to bond (Dot Blot)” value is 10^4 cell/ml. Besides, the “cell density down to which fungus was identified (Dot Blot)” value in test [3] is reported as 10^6 cell/ml. In test [4], the “melanization in lower concentrations” value is reported as “not significant inhibition”. For the same molecule, the “biofilm development (XTT reduction)” value in test [5] (non-washed cells) and in test [5] (washed cells) was “reduced biofilm development significantly” throughout.
